The text below walks through data of paper PMC10570038, “Cell-type specific regulator RBPMS switches alternative splicing via higher-order oligomerization and heterotypic interactions with other splicing regulators” (Nucleic Acids Research, 2023).

Data set [1] deals with the molecule itself. The data set is described as follows: AUC; sedimentation velocity, 40 000 rpm, 20°C, 20 mM HEPES, 1 mM TCEP, pH 7.9, 500 mM KCl; FL and ΔC20 at equal molar concentration (0.46 and 0.57 mg/ml); continuous c(s) model.
Data set [2] deals with the molecule itself. Kind of data set: SEC; size exclusion chromatography of purified untagged recombinant protein; compared with size markers (443 kDa marker, void volume). A general note: SEC sorts molecules by how far they enter the pores of the column.

B1: recombinant untagged full-length rat RBPMS-A (natural protein)
chain: not shown
notes: RBPMS isoform A (RBPMS-A), rat, cDNA NCBI XM_006253240.2; Exists as a mixture of dimers and higher-order oligomers; From pET15b-TEV-RBPMS-A; also called FL RBPMS; RBPMS-A FL; source: E. coli BL21(DE3), purified (HisTrap, TEV cleavage, Mono Q, Superdex 200); not shown: His6, N-terminal, cleaved
For B1, the “stoichiometry N” value in data set [1] is approximately 21; in data set [2], 2.

A word on the stoichiometry N: it is a count of units in the complex or per binding partner.
